{
  "source": "paper PMC6125681",
  "about": "“Stability of local secondary structure determines selectivity of viral RNA chaperones”",
  "key": {"[1]": {"target": "avian reovirus (ARV) σNS (avian reovirus)", "assay": "native MS; nanoESI-IMS-MS of σNS apoprotein, 20 μM, 200 mM ammonium acetate pH 7.6; no RNA"}, "[2]": {"target": "avian reovirus (ARV) σNS (avian reovirus)", "assay": "native MS; nanoESI-IMS-MS of σNS apoprotein, 20 μM, 200 mM ammonium acetate pH 7.6; no RNA", "remark": "listed apart in the source"}, "[3]": {"target": "avian reovirus (ARV) σNS (avian reovirus)", "assay": "native MS; nanoESI-IMS-MS of σNS–RNP complex (σNS saturated with unstructured 20mer RNA), 20 μM, 200 mM ammonium acetate pH 7.6"}, "[4]": {"target": "T1, σNS (Avian reovirus (strain not given)) (UniProt W8NR44)", "T1 sequence": "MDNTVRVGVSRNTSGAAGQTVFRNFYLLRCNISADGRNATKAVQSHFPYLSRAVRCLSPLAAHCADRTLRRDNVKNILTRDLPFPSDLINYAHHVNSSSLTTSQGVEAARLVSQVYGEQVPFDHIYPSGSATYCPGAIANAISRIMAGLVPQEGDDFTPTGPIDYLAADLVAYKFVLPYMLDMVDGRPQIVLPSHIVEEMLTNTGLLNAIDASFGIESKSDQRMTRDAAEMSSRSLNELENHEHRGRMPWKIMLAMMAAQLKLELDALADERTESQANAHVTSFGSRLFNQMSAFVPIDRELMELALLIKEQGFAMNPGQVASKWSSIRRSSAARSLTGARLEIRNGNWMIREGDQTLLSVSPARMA", "assay": "fluorescence anisotropy"}, "NSP2 [5]": {"target": "T2, NSP2 (Rotavirus (strain  in …, UniProt A2T3N6 1-317))", "T2 sequence": "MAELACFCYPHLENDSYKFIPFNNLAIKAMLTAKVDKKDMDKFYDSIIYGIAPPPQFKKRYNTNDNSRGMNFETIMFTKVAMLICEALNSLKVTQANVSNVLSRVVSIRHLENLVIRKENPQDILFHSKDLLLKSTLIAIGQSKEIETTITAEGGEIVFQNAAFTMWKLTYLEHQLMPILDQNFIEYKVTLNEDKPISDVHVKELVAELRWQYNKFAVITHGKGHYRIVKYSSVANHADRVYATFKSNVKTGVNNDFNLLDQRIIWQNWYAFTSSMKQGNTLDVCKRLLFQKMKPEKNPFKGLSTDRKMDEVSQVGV", "assay": "fluorescence anisotropy; 10 mM MgCl2", "conditions": "protein: recombinant; chain copies: 8; label: 5' AlexaFluor488; unstructured, MFE 0"}, "NSP2 [6]": {"target": "T2, NSP2", "assay": "fluorescence anisotropy; no Mg2+", "conditions": "protein: recombinant; chain copies: 8; label: 5' AlexaFluor488; unstructured, MFE 0"}, "NSP2 [7]": {"target": "T2, NSP2", "assay": "fluorescence anisotropy; no Mg2+; one value given for all three RNAs", "conditions": "protein: recombinant, chain copies: 8, label: 5' AlexaFluor488, hairpin"}, "NSP2 [8]": {"target": "T2, NSP2", "assay": "single-pair FRET; 25 nM protein; binds folded and unfolded RNA", "conditions": "protein: recombinant; chain copies: 8; Methods state the reverse; hairpin, -8.9 kcal/mol"}, "NSP2 [9]": {"target": "T2, NSP2", "assay": "FCCS; multiple RNAs per octamer", "conditions": "protein: recombinant; chain copies: 8; label: Cy3 or Cy5 (same string printed for both); unstructured; text calls the two labelled RNAs distinct non-complementary"}},
  "note": "Several values for one entry are separate records, joined by “and”; a condition that tells them apart may be missing. Identical values can stand only once.",
  "data": [
    {"molecule": "avian reovirus (ARV) σNS (natural protein)", "values": [
      {"measurement": "stoichiometry N", "setting": "[1]", "value": 8},
      {"measurement": "stoichiometry N", "setting": "[2]", "value": 6},
      {"measurement": "stoichiometry N", "setting": "[3]", "value": "8 and 6"}
    ]},
    {"molecule": "UCUUUGCAAACAUGCAAAGA [stable 20mer hairpin]", "values": [
      {"measurement": "Kd", "setting": "[4]", "value": 137, "unit": "nM"}
    ]},
    {"molecule": "CUUCUUUCGAAAUUAAGAAG [metastable 20mer]", "values": [
      {"measurement": "Kd", "setting": "[4]", "value": 24, "unit": "nM"}
    ]},
    {"molecule": "CUUUUCAAGACAUGCAACAA [unstructured 20mer]", "values": [
      {"measurement": "Kd", "setting": "[4]", "value": 37, "unit": "nM"},
      {"measurement": "binding signal (fold Kd increase vs no Mg2+)", "setting": "[4]", "value": 1.5}
    ]},
    {"molecule": "CUUUUCAAGACAUGCAACAA (ssRNA)", "note": "[unstructured 20mer]", "values": [
      {"measurement": "Kd", "setting": "NSP2 [5]", "value": "28 ± 1.48", "unit": "nM"},
      {"measurement": "Kd", "setting": "NSP2 [6]", "value": "20.7 ± 1.67", "unit": "nM"}
    ]},
    {"molecule": "CUUCUUUCGAAAUUAAGAAG (structured_RNA)", "note": "[metastable 20mer]", "values": [
      {"measurement": "Kd", "setting": "NSP2 [7]; -3.8 kcal/mol", "value": "~20", "unit": "nM"}
    ]},
    {"molecule": "AAAUCUUUGCAAACUAUCCAAUCCAUGCAAAGAUAA (structured_RNA)", "note": "[dual-labelled 36mer stem-loop]", "values": [
      {"measurement": "binding result", "setting": "NSP2 [8]", "value": "binds"}
    ]},
    {"molecule": "UCUUUGCAAACAUGCAAAGA (structured_RNA)", "note": "[stable 20mer hairpin]", "values": [
      {"measurement": "Kd", "setting": "NSP2 [7]; -8.1 kcal/mol", "value": "~20", "unit": "nM"}
    ]},
    {"molecule": "UUCCUUCUAUUUCUUCU (ssRNA)", "note": "[17mer (S11-derived)]", "values": [
      {"measurement": "binding result", "setting": "NSP2 [9]", "value": "binds"}
    ]}
  ]
}
